The values below come from the supplement of paper PMC12042874.

± gives the uncertainty stated by the source.

One data set in a line: amyloid nucleation score (Sup35N fusion, yeast selection) (log enrichment); library NNK3; higher = more nucleation; inactive = no reads after selection. A digest of the protocol: (§1)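 Plasmid inserts were Illumina-sequenced at input and output from psi-negative yeast expressing Sup35N fused to peptides of 20 random codons. The yeast were induced with 100 μM copper sulfate for 24 hours and grown 7 days at 30°C on medium lacking adenine and uracil, and sequences with under 100 input reads were excluded. Nucleation score is the DiMSum log enrichment of output over input reads, centred on the mode score of non-aggregating sequences.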
In the case of YSGIRVLFYFSISDDFSQSI, the amyloid nucleation score worked out at 0.756 ± 0.24.

With YSGTFDFLIKA, the amyloid nucleation score entry was “inactive”.

Regarding YSGWVCWSLQLTYMTFNFRL, the amyloid nucleation score result was “inactive”.

Consider YSHGTAKIPQAVVNDVIKSI, for which the amyloid nucleation score result was “inactive”.

Regarding YSHNLWLA, the amyloid nucleation score entry was “inactive”.

Take YSHSGIRIKRLEASEYTWPS: the amyloid nucleation score result was “inactive”.

Substance YSLEGSRSTVWRGVCCKLAF gave an amyloid nucleation score of 0.092 ± 0.24.

As for YSLFWCNNNVRGGKASMWYR, the amyloid nucleation score entry is “inactive”.

Regarding YSLNTSFIYIKIRYH, the amyloid nucleation score was found to be 1.28 ± 0.11.

As to YSNGASLVWLVNVKK, the amyloid nucleation score was determined as 2.19 ± 0.083.

In turn, YSSANNCNWC displayed an amyloid nucleation score of 1.7 ± 0.077.

On to YSSKIFHRLTK, for which the amyloid nucleation score entry was “inactive”.

YSSMYFL: the amyloid nucleation score entry is “inactive”.

With YSTRVVRSTPWSKCSSPDME, the amyloid nucleation score entry was “inactive”.

For the substance YSVNSTLLLYVSKYEFIPCV, the amyloid nucleation score is 0.169 ± 0.29.

Regarding YSWRGIFNGWFFCFMARVLG, the amyloid nucleation score entry was “inactive”.

As for YSYHS, the amyloid nucleation score result was “inactive”.

Regarding YSYNKFAVEVYLSSLHPEMM, the amyloid nucleation score result is “inactive”.

As for YTIPSPVGLVLDSPVEIRDL, the amyloid nucleation score result was “inactive”.

As for YTKMGTRLAFFWIRMMMRGR, the amyloid nucleation score result was “inactive”.

Turning to YTLAC, the amyloid nucleation score result was “inactive”.

In the case of YTLIIRLCFFNIGCAYRFSM, the amyloid nucleation score result was “inactive”.

For YTLVVQTSMVVFLRLYSGRY, the amyloid nucleation score result is “inactive”.

In the case of YTSEFVIAAWSLLFDDRYMS, the amyloid nucleation score entry is “inactive”.

Take YTSRFSSCLWESRSDEGRNM: the amyloid nucleation score entry is “inactive”.

With YTVEWWVINCFGGKADL, the amyloid nucleation score result is “inactive”.

On to YTWLVTVTDDGCRFEFSCEF, for which the amyloid nucleation score result is “inactive”.

Consider YTYWG, for which the amyloid nucleation score result is “inactive”.

YVAYFSGIVLMHHSRDIQFP registered an amyloid nucleation score of 0.496 ± 0.34.

Take YVCVPCPCELSIQCCVTITF: the amyloid nucleation score worked out at 2.01 ± 0.061.

With YVEMYN, the amyloid nucleation score result was “inactive”.

Regarding YVGFRAQHTNEDDGTTVCRP, the amyloid nucleation score result was “inactive”.

Regarding YVGVVVYLLPMLGALYGFGD, the amyloid nucleation score entry was “inactive”.

For the substance YVILPLEAPFS, the amyloid nucleation score came to 1.49 ± 0.095.

On to YVKPIGYTIFLWTGLGSP, for which the amyloid nucleation score result was “inactive”.

On to YVLMGAYASVL, for which the amyloid nucleation score entry is “inactive”.

Regarding YVMDNNFM, the amyloid nucleation score result was “inactive”.

As to YVNVSACNNGMLLGWQVG, the amyloid nucleation score entry was “inactive”.

Regarding YVRSHHNMNRTMVFKTCPWQ, the amyloid nucleation score entry was “inactive”.

Consider YVSGKSSYIIF, for which the amyloid nucleation score stood at 0.116 ± 0.71.

YVSTHLSVYTKSFRDMIAPG: the amyloid nucleation score entry is “inactive”.

YVVFYHLAVALSLKMASKRI displayed an amyloid nucleation score of -0.826 ± 1.9.

As for YVVSYPVGVRSNTHLLRIWR, the amyloid nucleation score result is “inactive”.

For the substance YVWRDLKAMGFVYAGVCGKA, the amyloid nucleation score entry is “inactive”.

For the substance YVYRSRFKQDLRGFLFNFTY, the amyloid nucleation score entry is “inactive”.

YWCLYLNSNCKMW returned an amyloid nucleation score of 0.31 ± 0.44.

With YWRFAMYQCIQFSRR, the amyloid nucleation score entry was “inactive”.

Take YWSIKELWRFRQLVWRKYIV: the amyloid nucleation score entry is “inactive”.

Regarding YWVSSYCIPMCGYQVWCVWG, the amyloid nucleation score entry was “inactive”.

As to YYAPVCYLSTKQGKARRPPP, the amyloid nucleation score result is “inactive”.

YYDCIALFNSKQGSYLHYWY: the amyloid nucleation score entry was “inactive”.

In the case of YYGRNEVLYQSDNVRYSSSG, the amyloid nucleation score result is “inactive”.

With YYLDRVYIFSTQDL, the amyloid nucleation score was found to be 1.67 ± 0.065.

In the case of YYLMLSIGQYSHTCMDGYVM, the amyloid nucleation score entry is “inactive”.

Regarding YYMNVESALECECWTIFKPC, the amyloid nucleation score entry is “inactive”.

The substance YYSFFDIFCVITSRANFGRP displayed an amyloid nucleation score of 1.28 ± 0.17.

Take YYSFKIDRLRFVRM: the amyloid nucleation score entry is “inactive”.

On to YYVFVYLYSCVCFTGTGKSV, for which the amyloid nucleation score entry was “inactive”.

Take YYVSYN: the amyloid nucleation score result is “inactive”.

Turning to YYVYSRGALLYHYILQMARL, the amyloid nucleation score result was “inactive”.

A further data set can be described thus: amyloid nucleation score (Sup35N fusion, yeast selection) (log enrichment); library NNK2; higher = more nucleation; inactive = no reads after selection. A digest of the protocol:
as §1
Turning to AACYCCISRMVLYFSFHGSC, the amyloid nucleation score entry was “inactive”.

In turn, AAHQMMCRFGPIPF displayed an amyloid nucleation score of 1.22 ± 0.23.

For the substance AAIIISLSYMI, the amyloid nucleation score worked out at 2.23 ± 0.075.

Substance AALCGLKFVRERKWRKSILS displayed an amyloid nucleation score of 0.345 ± 0.65.

Consider AARFELYSNWS, for which the amyloid nucleation score was determined as 2.05 ± 0.21.

The substance AASWHPAYCIYGPGGRDKVG showed an amyloid nucleation score of 2.49 ± 0.12.

On to ACANGDADVEWLSDFCEKDE, for which the amyloid nucleation score came to 1.02 ± 0.35.

In turn, ACANYGRVVWSSWDW registered an amyloid nucleation score of 0.388 ± 0.39.

On to ACIYRQRDS, for which the amyloid nucleation score was -0.332 ± 0.56.

ACLLIFLSTA registered an amyloid nucleation score of 2.31 ± 0.078.

In turn, ACMIEFRILRYRREMMSICS had an amyloid nucleation score of 6.489 ± 0.039.

Consider ACNLRAVYFT, for which the amyloid nucleation score is -1.47 ± 0.39.

In the case of ACNNRMISGIRTTDCYIYRP, the amyloid nucleation score is -0.261 ± 0.33.

For ACNSTFNRIEVYARVMKDTS, the amyloid nucleation score amounted to 3.96 ± 0.094.

Regarding ACQAFTCW, the amyloid nucleation score was found to be 0.967 ± 0.26.

Consider ACVNYYNSEATIVVRKGRMG, for which the amyloid nucleation score came out at 4.19 ± 0.071.

On to ACWKRMN, for which the amyloid nucleation score result is “inactive”.

The substance ADDFINVNDTNKTVLCMCCG showed an amyloid nucleation score of -0.61 ± 0.78.

ADEEFRRFIVPSFLPGSCSS returned an amyloid nucleation score of -0.08 ± 0.39.

In turn, ADPVNRKFLHSWDF came in with an amyloid nucleation score of 0.112 ± 0.29.

Turning to AEDMSQARA, the amyloid nucleation score is 1.15 ± 0.15.

As for AFASYIKNDPPGEVPMAEL, the amyloid nucleation score stood at 0.258 ± 0.24.

In the case of AFCAGVQAPEFPNLA, the amyloid nucleation score turned out to be 0.437 ± 0.65.

The substance AFDIFFNVVWRPFVHSCLAR yielded an amyloid nucleation score of 0.041 ± 0.56.

In turn, AFKKYQS had an amyloid nucleation score of -0.114 ± 0.74.

For the substance AFLLLRSMYW, the amyloid nucleation score is 6.933 ± 0.026.

Regarding AFLVYRKNNIPQYRVKVVDM, the amyloid nucleation score was -0.225 ± 0.63.

For AFRGSYLKFSESTCTIGSLW, the amyloid nucleation score stood at 2.12 ± 0.13.

Take AFRPVSSIGLCRWYMKRWNS: the amyloid nucleation score turned out to be 0.542 ± 0.19.

In turn, AFTWLY registered an amyloid nucleation score of 0.942 ± 0.26.

On to AGANLLSLCSFKHAECYFSN, for which the amyloid nucleation score was found to be 6.31 ± 0.071.

In turn, AGCVVNHTPRLLGRSTKRLK registered an amyloid nucleation score of 3.1 ± 0.062.

Consider AGFSSDGLQVMIIYD, for which the amyloid nucleation score came out at 0.379 ± 0.31.

Consider AGGEEIGGVSRS, for which the amyloid nucleation score was -1.07 ± 0.49.

On to AGVWHSSLFITIQGVLNFGY, for which the amyloid nucleation score came to 6.017 ± 0.02.

AGWQCLCSLFLLKEITTCIS displayed an amyloid nucleation score of -0.367 ± 0.56.

Consider AGYLNRNHLLRMLYWCSCFG, for which the amyloid nucleation score entry was “inactive”.

As to AHHRCHWYECVMMPRHGPRP, the amyloid nucleation score was 1.26 ± 0.33.

As for AHSATINA, the amyloid nucleation score is -0.113 ± 0.44.

For AIEYPYRCYRDVAWLRALAS, the amyloid nucleation score was determined as 0.582 ± 0.28.

For AIFGFTVVLVMFMRFLQDTC, the amyloid nucleation score was 0.732 ± 0.22.

In turn, AIFYDLMVNQRFVFTSFLWL returned an amyloid nucleation score of -0.14 ± 0.74.

As for AINGHDRGLSKLGGRAGESD, the amyloid nucleation score is 0.589 ± 0.42.

As to AISCSVTWNVTMTSGLTPLC, the amyloid nucleation score was found to be 1.17 ± 0.37.

As to AISSEGELLAVDFWNSNLDP, the amyloid nucleation score was -0.509 ± 0.23.

The substance AISSRLILLTPRAKSFVPSD showed an amyloid nucleation score of -0.247 ± 0.65.

In the case of AKDEERISNVVGLDCDLGVL, the amyloid nucleation score worked out at 0.057 ± 0.42.

Take AKVVHTVWACIAS: the amyloid nucleation score is -0.943 ± 0.78.

On to AKYIPHAVLKASPTVGIILV, for which the amyloid nucleation score was -0.54 ± 1.1.

As to ALCQYISSSYMWYSVMCELI, the amyloid nucleation score entry is “inactive”.

In the case of ALCYWRNSPSVGRRQWRRQC, the amyloid nucleation score came out at 6.654 ± 0.057.

ALDHSV displayed an amyloid nucleation score of -0.271 ± 1.

Substance ALDWPLICA displayed an amyloid nucleation score of -0.07 ± 0.39.

ALECGRTMEINLTGR returned an amyloid nucleation score of 0.942 ± 0.37.

As for ALGHR, the amyloid nucleation score was -0.079 ± 0.45.

On to ALGINFSWACG, for which the amyloid nucleation score turned out to be 4.998 ± 0.043.

Take ALHFPVIQHFW: the amyloid nucleation score was found to be 5.22 ± 0.073.

As for ALLTVFFNLVVVWDVKAVTP, the amyloid nucleation score is -0.159 ± 1.

The substance ALLYYTAVVDKNYTSDLSHD registered an amyloid nucleation score of -0.899 ± 0.37.

Substance ALNAG registered an amyloid nucleation score of 1.11 ± 0.2.

The substance ALPITQNCC gave an amyloid nucleation score of -1.07 ± 0.44.

For the substance ALSSKMMGYDRF, the amyloid nucleation score is -0.494 ± 0.64.

As to ANAKIYGNMEALETGMRL, the amyloid nucleation score was 0.553 ± 0.57.

For ANDPCGVKASRLYVLVSPRV, the amyloid nucleation score was determined as 0.707 ± 0.19.

For ANDSSNYEYVILMRPNVIEV, the amyloid nucleation score is -0.14 ± 0.49.

Substance ANERCGTLTMRSEAYHVRTW displayed an amyloid nucleation score of 0.808 ± 0.28.

In turn, ANFCVDCIDIAH yielded an amyloid nucleation score of 0.787 ± 0.45.

Consider ANKLLESCFSQCLRSALFEW, for which the amyloid nucleation score was -0.369 ± 0.79.

On to ANLWNEGFPLNGLHDNGIDQ, for which the amyloid nucleation score was -0.379 ± 0.49.

In the case of ANMTVVGWFCIRR, the amyloid nucleation score came out at 6.146 ± 0.058.

Turning to ANNFCRINESDWVRSVILPS, the amyloid nucleation score turned out to be 0.042 ± 1.1.

For ANPFKSSDATVLVDVRGMGS, the amyloid nucleation score was determined as 3.09 ± 0.068.

ANRFSALFGPLLRVAPPKNS displayed an amyloid nucleation score of 1.18 ± 0.24.

On to APADH, for which the amyloid nucleation score is 2.52 ± 0.15.

APENGFRFWLVNHNAVHMIL came in with an amyloid nucleation score of -0.21 ± 0.79.

On to APRCALQLGS, for which the amyloid nucleation score is 1.27 ± 0.28.
